The text below walks through data of the RNAGym collection of RNA variant scans (doi:10.7554/elife.80360).

The chains are these.
B1: HDV Ribozyme (parent)
chain: GGCCGGCAUGGUCCCAGCCUCCUCGCUGGCGCCGGCUGGGCAACAUUCCGAGGGGACCGUCCCCUCGGUAAUGGCGAAUGGGACCCA

The variants in the series derive from B1. Nature of the series: self-cleavage, relative activity (ratio to wild type); higher = more cleavage; co-transcriptional.
GGCCGGCAUGGUCCCAGCCUCCUCGCUGGCGCCGGCUGGGCAACAUUCCGAGGGGACCCUCCCCUCGGUAAUGGAGAAUGGGACCCA: the self-cleavage was determined as 0.219. Then GGCCGGCAUGGUCCCAGCCUCCUCGCUGGCGCCGGCUGGGCAACAUUCCGAGGGGACCGCCCCCUCGGUAAUGGCGAAUGGGCCCCA, with 0.443.

For GGCCGGCAUGGUCCCAGCCUCCUCGCUGGCGCCGGCUGGGCAACAUUCCGAGGGGACCGACCCCUCGGUAAUGACGAAUGGGACCCA, the self-cleavage turned out to be 0.422.

Consider GGCCGGCAUGGUCCCAGCCUCCUCGCUGGCGCCGGCUGGGCAACAUUCCGAGGGGACCUUCCCCUCGGUAAUGGCGAAUGGGACCUA, for which the self-cleavage is 0.852.

Turning to GGCCGGCAUGGUCCCAGCCUCCUCGCUGGCGCCGGCUGGGCAACAUUCCGAGGGGACCGACCCCUCGGUGAUGGCGAAUGGGACCCA, the self-cleavage was 0.77. Then GGCCGGCAUGGUCCCAGCCUCCUCGCUGGCGCCGGCUGGGCAACAUUCCGAGGGGACCGACCCCUCGGUCAUGGCGAAUGGGACCCA, with 0.808; and GGCCGGCAUGGUCCCAGCCUCCUCGCUGGCGCCGGCUGGGCAACAUUCCGAGGGGACCUUCCCCUCGGUAAUGGCGAAUGGGACCCC, with 1.17.

Consider GGCCGGCAUGGUCCCAGCCUCCUCGCUGGCGCCGGCUGGGCAACAUUCCGAGGGGACCUUCCCCUCGGUAAUGGCGAAUGGGACCCU, for which the self-cleavage was found to be 1.09.

With GGCCGGCAUGGUCCCAGCCUCCUCGCUGGCGCCGGCUGGGCAACAUUCCGAGGGGACCCUCCCCUCGCUAAUGGCGAAUGGGACCCA, the self-cleavage came to 1.11. Turning to GGCCGGCAUGGUCCCAGCCUCCUCGCUGGCGCCGGCUGGGCAACAUUCCGAGGGGACCUUCCCCUCGGUAAAGGCGAAUGGGACCCA, the self-cleavage was 0.665. As to GGCCGGCAUGGUCCCAGCCUCCUCGCUGGCGCCGGCUGGGCAACAUUCCGAGGGGACCUUCCCCUCGGUAAUGGCGAAUGGGACCCA, the self-cleavage is 0.997. Take GGCCGGCAUGGUCCCAGCCUCCUCGCUGGCGCCGGCUGGGCAACAUUCCGAGGGGACCUUCCGCUCGGUAAUGGCGAAUGGGACCCA: the self-cleavage stood at 0.767. For the variant GGCCGGCAUGGUCCCAGCCUCCUCGCUGGCGCCGGCUGGGCAACAUUCCGAGGGGACCUUCCUCUCGGUAAUGGCGAAUGGGACCCA, the self-cleavage came to 1.04. Then GGCCGGCAUGGUCCCAGCCUCCUCGCUGGCGCCGGCUGGGCAACAUUCCGAGGGGACCUUCCCCUCAGUAAUGGCGAAUGGGACCCA, with 1.05; and GGCCGGCAUGGUCCCAGCCUCCUCGCUGGCGCCGGCUGGGCAACAUUCCGAGGGGACCGACCCCUCGGUAAUGGCGAAGGGGACCCA, with 0.807; and GGCCGGCAUGGUCCCAGCCUCCUCGCUGGCGCCGGCUGGGCAACAUUCCGAGGGGACCGCCCCCUCGGUAGUGGCGAAUGGGACCCA, with 0.886. As for GGCCGGCAUGGUCCCAGCCUCCUCGCUGGCGCCGGCUGGGCAACAUUCCGAGGGGACCCUCCUCUCGGUAAUGGCGAAUGGGACCCA, the self-cleavage is 1.11. Then GGCCGGCAUGGUCCCAGCCUCCUCGCUGGCGCCGGCUGGGCAACAUUCCGAGGGGACCGCCCCCUCGGUAAUGGCGCAUGGGACCCA, with 0.575.

For GGCCGGCAUGGUCCCAGCCUCCUCGCUGGCGCCGGCUGGGCAACAUUCCGAGGGGACCGCCCCCUCGGUAAUGGCGGAUGGGACCCA, the self-cleavage was determined as 0.831. As to GGCCGGCAUGGUCCCAGCCUCCUCGCUGGCGCCGGCUGGGCAACAUUCCGAGGGGACCUCCCCCUCGGUAAUGGCGAAUGGGACCCA, the self-cleavage came out at 1.37. With GGCCGGCAUGGUCCCAGCCUCCUCGCUGGCGCCGGCUGGGCAACAUUCCGAGGGGACCUGCCCCUCGGUAAUGGCGAAUGGGACCCA, the self-cleavage was 0.88. In the case of GGCCGGCAUGGUCCCAGCCUCCUCGCUGGCGCCGGCUGGGCAACAUUCCGAGGGGACCUUCCCCUCGGUAAUAGCGAAUGGGACCCA, the self-cleavage turned out to be 0.644.

In the case of GGCCGGCAUGGUCCCAGCCUCCUCGCUGGCGCCGGCUGGGCAACAUUCCGAGGGGACCUUCCCAUCGGUAAUGGCGAAUGGGACCCA, the self-cleavage was determined as 0.899. For GGCCGGCAUGGUCCCAGCCUCCUCGCUGGCGCCGGCUGGGCAACAUUCCGAGGGGACCGACCCCUAGGUAAUGGCGAAUGGGACCCA the value was 0.972; for GGCCGGCAUGGUCCCAGCCUCCUCGCUGGCGCCGGCUGGGCAACAUUCCGAGGGGACCGACCCCUGGGUAAUGGCGAAUGGGACCCA, 0.878. In the case of GGCCGGCAUGGUCCCAGCCUCCUCGCUGGCGCCGGCUGGGCAACAUUCCGAGGGGACCGACCCCUUGGUAAUGGCGAAUGGGACCCA, the self-cleavage worked out at 1.12. As to GGCCGGCAUGGUCCCAGCCUCCUCGCUGGCGCCGGCUGGGCAACAUUCCGAGGGGACCGCCCCCUCGGUGAUGGCGAAUGGGACCCA, the self-cleavage was found to be 1.15. Turning to GGCCGGCAUGGUCCCAGCCUCCUCGCUGGCGCCGGCUGGGCAACAUUCCGAGGGGACCUUCCCCUCGGUAAUGGCCAAUGGGACCCA, the self-cleavage came out at 1.08. GGCCGGCAUGGUCCCAGCCUCCUCGCUGGCGCCGGCUGGGCAACAUUCCGAGGGGACCUUCCCCUCGGCAAUGGCGAAUGGGACCCA: the self-cleavage turned out to be 0.852. On to GGCCGGCAUGGUCCCAGCCUCCUCGCUGGCGCCGGCUGGGCAACAUUCCGAGGGGACCGACCCCUCGGUAAAGGCGAAUGGGACCCA, for which the self-cleavage came to 0.739. Regarding GGCCGGCAUGGUCCCAGCCUCCUCGCUGGCGCCGGCUGGGCAACAUUCCGAGGGGACCUUCCCCUCGGUAAUGGCGAAAGGGACCCA, the self-cleavage turned out to be 0.929.

As for GGCCGGCAUGGUCCCAGCCUCCUCGCUGGCGCCGGCUGGGCAACAUUCCGAGGGGACCCUCCCCUCGGUAAUUGCGAAUGGGACCCA, the self-cleavage was 0.379. For GGCCGGCAUGGUCCCAGCCUCCUCGCUGGCGCCGGCUGGGCAACAUUCCGAGGGGACCGACCGCUCGGUAAUGGCGAAUGGGACCCA, the self-cleavage came to 0.851. For GGCCGGCAUGGUCCCAGCCUCCUCGCUGGCGCCGGCUGGGCAACAUUCCGAGGGGACCUUCCCCUCGGUACUGGCGAAUGGGACCCA the value was 0.895; for GGCCGGCAUGGUCCCAGCCUCCUCGCUGGCGCCGGCUGGGCAACAUUCCGAGGGGACCCUCCCCACGGUAAUGGCGAAUGGGACCCA, 1.17; for GGCCGGCAUGGUCCCAGCCUCCUCGCUGGCGCCGGCUGGGCAACAUUCCGAGGGGACCCUCCCCGCGGUAAUGGCGAAUGGGACCCA, 0.95. Regarding GGCCGGCAUGGUCCCAGCCUCCUCGCUGGCGCCGGCUGGGCAACAUUCCGAGGGGACCCUCCCCUCGGUAAUGGCGAAUGGUACCCA, the self-cleavage is 0.489. Turning to GGCCGGCAUGGUCCCAGCCUCCUCGCUGGCGCCGGCUGGGCAACAUUCCGAGGGGACCGACCCCUCGGUAAUGGCGAAUGUGACCCA, the self-cleavage was found to be 0.151.

Turning to GGCCGGCAUGGUCCCAGCCUCCUCGCUGGCGCCGGCUGGGCAACAUUCCGAGGGGACCGACCCCUCGGUAAUGGCGAAUGCGACCCA, the self-cleavage amounted to 0.0811. On to GGCCGGCAUGGUCCCAGCCUCCUCGCUGGCGCCGGCUGGGCAACAUUCCGAGGGGACCUUCCCCUCGGUAAUGGAGAAUGGGACCCA, for which the self-cleavage worked out at 0.0314. For the variant GGCCGGCAUGGUCCCAGCCUCCUCGCUGGCGCCGGCUGGGCAACAUUCCGAGGGGACCGACCCCUCGGUAAUGGCGAAUAGGACCCA, the self-cleavage was found to be 0.3. As for GGCCGGCAUGGUCCCAGCCUCCUCGCUGGCGCCGGCUGGGCAACAUUCCGAGGGGACCGACCCCUCGGUAAUGGCGAAUGGGACCCC, the self-cleavage is 1. As for GGCCGGCAUGGUCCCAGCCUCCUCGCUGGCGCCGGCUGGGCAACAUUCCGAGGGGACCUUCCCCUCGGUAAUGGCGAAUGGUACCCA, the self-cleavage amounted to 0.554. With GGCCGGCAUGGUCCCAGCCUCCUCGCUGGCGCCGGCUGGGCAACAUUCCGAGGGGACCUUCCCCUUGGUAAUGGCGAAUGGGACCCA, the self-cleavage amounted to 0.875. For GGCCGGCAUGGUCCCAGCCUCCUCGCUGGCGCCGGCUGGGCAACAUUCCGAGGGGACCCCCCCCUCGGUAAUGGCGAAUGGGACCCA the value was 0.937; for GGCCGGCAUGGUCCCAGCCUCCUCGCUGGCGCCGGCUGGGCAACAUUCCGAGGGGACCCUCGCCUCGGUAAUGGCGAAUGGGACCCA, 0.6; for GGCCGGCAUGGUCCCAGCCUCCUCGCUGGCGCCGGCUGGGCAACAUUCCGAGGGGACCCUCCCCUCGGUAAUGGCGAAUCGGACCCA, 0.222. For the variant GGCCGGCAUGGUCCCAGCCUCCUCGCUGGCGCCGGCUGGGCAACAUUCCGAGGGGACCCUCCCCUUGGUAAUGGCGAAUGGGACCCA, the self-cleavage was found to be 0.81. Turning to GGCCGGCAUGGUCCCAGCCUCCUCGCUGGCGCCGGCUGGGCAACAUUCCGAGGGGACCGCCCCCUCGGUAAUGGCGAAUGGGACCCC, the self-cleavage is 1.05. For the variant GGCCGGCAUGGUCCCAGCCUCCUCGCUGGCGCCGGCUGGGCAACAUUCCGAGGGGACCGACCCCACGGUAAUGGCGAAUGGGACCCA, the self-cleavage came out at 0.831. As for GGCCGGCAUGGUCCCAGCCUCCUCGCUGGCGCCGGCUGGGCAACAUUCCGAGGGGACCUUCCCCUCGGUUAUGGCGAAUGGGACCCA, the self-cleavage is 0.923. For GGCCGGCAUGGUCCCAGCCUCCUCGCUGGCGCCGGCUGGGCAACAUUCCGAGGGGACCUUCCCCUCGGUCAUGGCGAAUGGGACCCA the value was 0.77; for GGCCGGCAUGGUCCCAGCCUCCUCGCUGGCGCCGGCUGGGCAACAUUCCGAGGGGACCUUCCCCUCGGUGAUGGCGAAUGGGACCCA, 1.12; for GGCCGGCAUGGUCCCAGCCUCCUCGCUGGCGCCGGCUGGGCAACAUUCCGAGGGGACCGACCCCUCGGUAAUGGCGAAUGGGACUCA, 0.912. As to GGCCGGCAUGGUCCCAGCCUCCUCGCUGGCGCCGGCUGGGCAACAUUCCGAGGGGACCGACCCCUCGGUAAUGGCGAAUGGGACGCA, the self-cleavage stood at 0.673. With GGCCGGCAUGGUCCCAGCCUCCUCGCUGGCGCCGGCUGGGCAACAUUCCGAGGGGACCCUCCCCUCGGUAAUGGCGAAUGCGACCCA, the self-cleavage came out at 0.261. Take GGCCGGCAUGGUCCCAGCCUCCUCGCUGGCGCCGGCUGGGCAACAUUCCGAGGGGACCUUCCCCUCGGUAAUGGCGAAUGGGUCCCA: the self-cleavage was 0.486. Take GGCCGGCAUGGUCCCAGCCUCCUCGCUGGCGCCGGCUGGGCAACAUUCCGAGGGGACCUUCCCCUCGGUAAUGGCGAAUGGGGCCCA: the self-cleavage amounted to 0.732. Turning to GGCCGGCAUGGUCCCAGCCUCCUCGCUGGCGCCGGCUGGGCAACAUUCCGAGGGGACCCUCCCCUCAGUAAUGGCGAAUGGGACCCA, the self-cleavage was 1.06. In the case of GGCCGGCAUGGUCCCAGCCUCCUCGCUGGCGCCGGCUGGGCAACAUUCCGAGGGGACCCUCCCCUCUGUAAUGGCGAAUGGGACCCA, the self-cleavage stood at 1.09. For GGCCGGCAUGGUCCCAGCCUCCUCGCUGGCGCCGGCUGGGCAACAUUCCGAGGGGACCGACCCUUCGGUAAUGGCGAAUGGGACCCA, the self-cleavage was 1.13. Take GGCCGGCAUGGUCCCAGCCUCCUCGCUGGCGCCGGCUGGGCAACAUUCCGAGGGGACCGACCCCUCGGUAAUGGCGAAUGGGACCUA: the self-cleavage was 0.831.

As to GGCCGGCAUGGUCCCAGCCUCCUCGCUGGCGCCGGCUGGGCAACAUUCCGAGGGGACCGCCCACUCGGUAAUGGCGAAUGGGACCCA, the self-cleavage worked out at 1.04. For the variant GGCCGGCAUGGUCCCAGCCUCCUCGCUGGCGCCGGCUGGGCAACAUUCCGAGGGGACCUUCCCCCCGGUAAUGGCGAAUGGGACCCA, the self-cleavage was 1.15.
